The source of these data is PMC5547543.

Assay [1] concerns the target Hck (2PA-YEEI) (UniProt P08631).
Assay [2] shares this target. The experiment in a line: SPR; Hck (2PA-YEEI) amine-coupled (EDC/NHS) to a CMD 500 carboxymethyl dextran chip, 6053 RU, BIAcore 2000; Csk, Chk, Chk mutants and chimera as analytes in HBS (10 mM HEPES pH 7.4, 150 mM NaCl, 3.4 mM EDTA, 0.005% Tween 20); global fit to a 1 to 1 model with mass transfer; molecular binding activity from the maximum response. Background: Surface plasmon resonance follows binding to a sensor surface in real time, without labels.

B1: Csk-homologous kinase (Chk), recombinant wild type (enzyme)
chain: MQGHFPAERREGRPRRGTRGQQQLLVSPRFLRAWHPPPVSARMPTRRWAPGTQCITKCEHTRPKPGELAFRKGDVVTILEACENKSWYRVKHHTSGQEGLLAAGALREREALSADPKLSLMPWFHGKISGQEAVQQLQPPEDGLFLVRESARHPGDYVLCVSFGRDVIHYRVLHRDGHLTIDEAVFFCNLMDMVEHYSKDKGAICTKLVRPKRKHGTKSAEEELARAGWLLNLQHLTLGAQIGEGEFGAVLQGEYLGQKVAVKNIKCDVTAQAFLDETAVMTKMQHENLVRLLGVILHQGLYIVMEHVSKGNLVNFLRTRGRALVNTAQLLQFSLHVAEGMEYLESKKLVHRDLAARNILVSEDLVAKVSDFGLAKAERKGLDSSRLPVKWTAPEALKHGKFTSKSDVWSFGVLLWEVFSYGRAPYPKMSLKEVSEAVEKGYRMEPPEGCPGPVHVLMSSCWEAEPARRPPFRKLAEKLARELRSAGAPASVSGQDADGSTSPRSQEP
The Kd is the equilibrium constant for the complex coming apart. As usually defined, the koff is a measure of how fast the partners let go of each other. The term kon denotes a measure of how fast the partners come together. In assay [1], B1 came in with an inhibition of the kinase activity of Hck (2PA-YEEI) (0.5 μM) on the cdc2 (6-20) peptide after pre-incubation with Chk; more than 60% at 1.5 μM, up to 8.3 μM Chk of 80%. Moreover, in assay [2], the equilibrium dissociation constant (Kd) was 64 nM, the koff came out at 0.000272 s⁻¹ and the kon is 4250 M⁻¹ s⁻¹. This molecule displayed a molecular binding activity (MBA) at 2.2 μM Chk in assay [2] (scale: mol of analyte bound per mol of immobilized Hck) of 0.46.
